Fewer inactive variants are shown than the library holds.
Tests used:
biotinyl-Ile-oxazolone = test: self-aminoacylation, catalytic enhancement (BIO) (fold over background); higher = more active; k-Seq, kA / k0A0; sequences stand for … in GGGAAUGGAUCCACAUCUACGAAUUC…UUCACUGCAGACUUGACGAAGCUG
Outline: (§1)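 Mutagenized RNA pools with a 21-nt variable region (0.43 μM) were reacted with each biotinyl-aminoacyl-oxazolone at 2–1250 μM for 90 minutes at room temperature, in 50 μL HEPES/NaCl/KCl/MgCl2/CaCl2 buffer containing 5% acetonitrile at pH 6.9–7.0. RNA captured on streptavidin was quantified by triplicate qPCR and by Illumina sequencing. The fraction reacted for each sequence was fit to a pseudo-first-order model with bootstrapping, and catalytic enhancement is the median kA divided by the uncatalyzed rate, taken as the low-activity peak of a bimodal Gaussian fit.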

biotinyl-Leu-oxazolone = test: self-aminoacylation, catalytic enhancement (BLO) (fold over background); higher = more active; k-Seq, kA / k0A0; sequences stand for … in GGGAAUGGAUCCACAUCUACGAAUUC…UUCACUGCAGACUUGACGAAGCUG
Outline: as §1

biotinyl-Met-oxazolone = test: self-aminoacylation, catalytic enhancement (BMO) (fold over background); higher = more active; k-Seq, kA / k0A0; sequences stand for … in GGGAAUGGAUCCACAUCUACGAAUUC…UUCACUGCAGACUUGACGAAGCUG
Outline: as §1

biotinyl-Trp-oxazolone = test: self-aminoacylation, catalytic enhancement (BWO) (fold over background); higher = more active; k-Seq, kA / k0A0; sequences stand for … in GGGAAUGGAUCCACAUCUACGAAUUC…UUCACUGCAGACUUGACGAAGCUG
Outline: as §1

biotinyl-Phe-oxazolone = test: self-aminoacylation, catalytic enhancement (BFO) (fold over background); higher = more active; k-Seq, kA / k0A0; sequences stand for … in GGGAAUGGAUCCACAUCUACGAAUUC…UUCACUGCAGACUUGACGAAGCUG
Outline: as §1

biotinyl-Val-oxazolone = test: self-aminoacylation, catalytic enhancement (BVO) (fold over background); higher = more active; k-Seq, kA / k0A0; sequences stand for … in GGGAAUGGAUCCACAUCUACGAAUUC…UUCACUGCAGACUUGACGAAGCUG
Outline: as §1

Sequence | self-aminoacylation (biotinyl-Ile-oxazolone) | self-aminoacylation (biotinyl-Leu-oxazolone) | self-aminoacylation (biotinyl-Met-oxazolone) | self-aminoacylation (biotinyl-Trp-oxazolone) | self-aminoacylation (biotinyl-Phe-oxazolone) | self-aminoacylation (biotinyl-Val-oxazolone)
AAGUUUGCGAAUAGUCCCAAG [Fam3.1 aminoacylation ribozyme variant] | 1.06 | 0.951 | 1.14 | 0.863 | 1.03 | 0.844
AAGUUUGCGAAUAGUUGCAAG [Fam3.1 aminoacylation ribozyme variant] | 0.915 | 0.661 | 1.2 | 1.16 | 0.975 | 0.803
AAGUUUGCGAAUGGUCGCAAG [Fam3.1 aminoacylation ribozyme variant] | 0.908 | 0.728 | 0.97 | 1.47 | 5.78 | 1.11
AAGUUUGCUAAAAGUCGCAAA [Fam3.1 aminoacylation ribozyme variant] | 1.7 | 1.67 | 1.87 | 1.32 | 1.91 | 1.59
AAGUUUGCUAAAAGUCGCAAC [Fam3.1 aminoacylation ribozyme variant] | 1.08 | 1.25 | 1.1 | 1.01 | 0.796 | 0.948
AAGUUUGCUAAAAGUCGCAGG [Fam3.1 aminoacylation ribozyme variant] | 1.26 | 1.07 | 1.37 | 1.3 | 1.77 | 1.12
AAGUUUGCUAAAAGUCGGAAG [Fam3.1 aminoacylation ribozyme variant] | 0.814 | 0.778 | 0.755 | 1.22 | 5.57 | 0.924
AAGUUUGCUAAAUGUCGCAAG [Fam3.1 aminoacylation ribozyme variant] | 1 | 1.1 | 0.876 | 0.74 | 0.96 | 0.837
AAGUUUGCUAACAGUCACAAG [Fam3.1 aminoacylation ribozyme variant] | 0.92 | 1.12 | 1.04 | 1.06 | 2.73 | 0.942
AAGUUUGCUAACAGUCGAAAG [Fam3.1 aminoacylation ribozyme variant] | 0.878 | 0.689 | 0.838 | 2 | 5.73 | 0.848
AAGUUUGCUAACAGUCGCAAG [Fam3.1 aminoacylation ribozyme variant] | 1.18 | 0.961 | 1.29 | 5.51 | 21.1 | 1.06
AAGUUUGCUAACAGUCGCCAG [Fam3.1 aminoacylation ribozyme variant] | 1.61 | 1.17 | 1.45 | 2.07 | 1.8 | 1.33
AAGUUUGCUAACAGUCGCGAG [Fam3.1 aminoacylation ribozyme variant] | 1.02 | 1.24 | 0.591 | 2.46 | 1.64 | 1.12
AAGUUUGCUAAGAGUAGCAAG [Fam3.1 aminoacylation ribozyme variant] | 0.857 | 1.21 | 1.1 | 1.17 | 1.3 | 0.727
AAGUUUGCUAAGAGUCGCAAA [Fam3.1 aminoacylation ribozyme variant] | 1.01 | 0.88 | 1.25 | 1.12 | 2.02 | 0.889
AAGUUUGCUAAGAGUCGUAAG [Fam3.1 aminoacylation ribozyme variant] | 0.61 | 0.535 | 0.708 | 2.31 | 7.41 | 0.757
AAGUUUGCUAAUAAUCACAAG [Fam3.1 aminoacylation ribozyme variant] | 1.08 | 1.08 | 1.05 | 1.1 | 1.25 | 0.832
AAGUUUGCUAAUAAUCGCAAG [Fam3.1 aminoacylation ribozyme variant] | 0.735 | 0.602 | 0.637 | 0.876 | 1.6 | 0.746
AAGUUUGCUAAUAAUCGCGAG [Fam3.1 aminoacylation ribozyme variant] | 0.983 | 0.744 | 0.863 | 1.47 | 1.24 | 0.808
AAGUUUGCUAAUACUCGCCAG [Fam3.1 aminoacylation ribozyme variant] | 0.916 | 0.655 | 0.629 | 0.773 | 0.993 | 0.836
AAGUUUGCUAAUACUUGCAAG [Fam3.1 aminoacylation ribozyme variant] | 0.743 | 0.586 | 0.582 | 0.685 | 0.999 | 0.625
AAGUUUGCUAAUAGACGCAAG [Fam3.1 aminoacylation ribozyme variant] | 0.526 | 0.459 | 0.477 | 0.574 | 0.87 | 0.587
AAGUUUGCUAAUAGACGCACG [Fam3.1 aminoacylation ribozyme variant] | 0.543 | 0.365 | 0.472 | 0.572 | 0.811 | 0.528
AAGUUUGCUAAUAGACGCUAG [Fam3.1 aminoacylation ribozyme variant] | 0.547 | 0.495 | 0.754 | 0.501 | 0.777 | 0.654
AAGUUUGCUAAUAGCAGCAAG [Fam3.1 aminoacylation ribozyme variant] | 0.793 | 0.646 | 0.683 | 0.754 | 1.12 | 0.851
AAGUUUGCUAAUAGCCACAAG [Fam3.1 aminoacylation ribozyme variant] | 0.821 | 0.833 | 0.55 | 0.834 | 1.59 | 0.827

— the supplement of paper PMC9233669
